One experiment has as its target T1, human CD137 (human, UniProt Q07011 24-186).
T1 construct: also called CD137 receptor; 4-1BB
Description: surface plasmon resonance (SPR); format not described.

The target in another experiment is T2, rat CD137 (rat).
T2 construct: It was recombinantly expressed in reporter cells for the NFkB assay; also called rodent CD137 receptors (rat)
Kind of experiment: not described; the reference is not named in the sentence (monkey and human CD137 in the sentences before).

For experiment [1], the target named is T3, mouse CD137 (mouse, UniProt P20334 24-187, limits assumed).
T3 construct: It was recombinantly expressed in reporter cells for the NFkB assay; also called rodent CD137 receptors (mouse)
T3 sequence (looked up): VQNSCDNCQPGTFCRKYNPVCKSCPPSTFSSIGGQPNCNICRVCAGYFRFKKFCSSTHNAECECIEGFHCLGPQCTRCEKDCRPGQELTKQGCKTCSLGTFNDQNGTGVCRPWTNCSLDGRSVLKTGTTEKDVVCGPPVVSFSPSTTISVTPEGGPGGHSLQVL
Described as above.

A further experiment addresses cynomolgus monkey CD137 (cynomolgus monkey, UniProt A9YYE7 24-254). Description: cell-based or functional assay.
Experiment [2] concerns the target T3, mouse CD137. Kind of experiment: cell-based or functional assay.

T1 sequence (Q07011 24-186 limits assumed): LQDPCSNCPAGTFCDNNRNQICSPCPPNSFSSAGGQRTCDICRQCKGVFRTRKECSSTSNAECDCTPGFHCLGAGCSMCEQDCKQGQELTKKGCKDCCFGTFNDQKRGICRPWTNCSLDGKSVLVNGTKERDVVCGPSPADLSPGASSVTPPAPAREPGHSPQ
Sequence of cynomolgus monkey CD137 (A9YYE7 entry or part of it): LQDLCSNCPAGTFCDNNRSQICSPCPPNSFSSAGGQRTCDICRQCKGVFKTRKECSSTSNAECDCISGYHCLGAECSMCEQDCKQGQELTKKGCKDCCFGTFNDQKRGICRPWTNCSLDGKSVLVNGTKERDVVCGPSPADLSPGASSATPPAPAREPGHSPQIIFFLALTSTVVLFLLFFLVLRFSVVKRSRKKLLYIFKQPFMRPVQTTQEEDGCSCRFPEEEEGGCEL

B1: ADG106 (antibody, human IgG4 S228P, kappa, V domains shown)
VH: EVQLVESGGGLVQPGGSLRLSCAASGFSLSTGGVGVGWIRQAPGKGLEWLALIDWADDKYYSPSLKSRLTISRDNSKNTLYLQLNSLRAEDTAVYYCARGGSDTVIGDWFAYWGQGTLVTVSS
VL: DIQLTQSPSSLSASVGDRVTITCRASQSIGSYLAWYQQKPGKAPKLLIYDASNLETGVPSRFSGSGSGTDFTLTISSLQPEDFATYYCQQGYYLWTFGQGTKVEIKR
notes: also called anti-CD137 antibody ADG106; fully human agonistic anti-CD137 monoclonal IgG4 antibody
For orientation: Kd means the equilibrium constant for the complex coming apart. B1 returned a Kd in the experiment with human CD137 of 3.7 nM. For the same molecule, the fold lower affinity in the experiment with rat CD137 and with mouse CD137 [1] was more than 100 fold each time. In the experiment with cynomolgus monkey CD137, the “EC50 (read off the curve) (NFkB reporter, 293T cells expressing monkey CD137)” value is approximately 0.3 µg/mL. Also, the “EC50 (read off the curve) (NFkB reporter, 293T cells expressing mouse CD137)” value with mouse CD137 [2] is approximately 0.4 µg/mL.

For the origin of these results see patent publication US20230133118A1 (ADAGENE, published 2023).
